Values of other authors in patent publication EP4725499A1, “M[…] PROTEIN FOR IMM[…] ALZHEIMER'S DISEASE” (Centro De Neurociencias De Cuba, priority 2023, dated 2024).

Target: Aβ (Homo sapiens, UniProt P05067)
Sequence (P05067 672-713 limits assumed): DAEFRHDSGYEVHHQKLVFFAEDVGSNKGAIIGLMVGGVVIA

AN1792: AN1792 vaccine, consisting of a synthetic Aβ1-42 peptide
time after which responders maintained an anti-AN-1792 antibody response (follow-up of responders, 1-3 injections, low titers): approximately 4.6 years
patients who developed an anti-Aβ antibody response (patients with mild to moderate AD, phase II): 19.7%
progression of cognitive decline (responders compared with placebo-treated patients, follow-up): significantly reduced
